Molecular target: fibronectin (Fn) isolated from human plasma, as manually pulled single Fn fibres (human) (UniProt P02751)
Assay: fluorescence microscopy of a labelled peptide on single Fn fibres (fibre stretch assay); Fn fibres (10% Fn-Alexa647) held across PDMS trenches in a uniaxial strain device, relaxed or stretched (40%, 140%, 380% absolute strain); blocked with 4% BSA 30 min; incubated with CLP-Alexa488 30 min, rinsed and imaged in PBS; CLP-Alexa488/Fn-Alexa647 intensity ratio normalised to the 140% strain point

UniProt P02751, sequence (P02751 32-2477): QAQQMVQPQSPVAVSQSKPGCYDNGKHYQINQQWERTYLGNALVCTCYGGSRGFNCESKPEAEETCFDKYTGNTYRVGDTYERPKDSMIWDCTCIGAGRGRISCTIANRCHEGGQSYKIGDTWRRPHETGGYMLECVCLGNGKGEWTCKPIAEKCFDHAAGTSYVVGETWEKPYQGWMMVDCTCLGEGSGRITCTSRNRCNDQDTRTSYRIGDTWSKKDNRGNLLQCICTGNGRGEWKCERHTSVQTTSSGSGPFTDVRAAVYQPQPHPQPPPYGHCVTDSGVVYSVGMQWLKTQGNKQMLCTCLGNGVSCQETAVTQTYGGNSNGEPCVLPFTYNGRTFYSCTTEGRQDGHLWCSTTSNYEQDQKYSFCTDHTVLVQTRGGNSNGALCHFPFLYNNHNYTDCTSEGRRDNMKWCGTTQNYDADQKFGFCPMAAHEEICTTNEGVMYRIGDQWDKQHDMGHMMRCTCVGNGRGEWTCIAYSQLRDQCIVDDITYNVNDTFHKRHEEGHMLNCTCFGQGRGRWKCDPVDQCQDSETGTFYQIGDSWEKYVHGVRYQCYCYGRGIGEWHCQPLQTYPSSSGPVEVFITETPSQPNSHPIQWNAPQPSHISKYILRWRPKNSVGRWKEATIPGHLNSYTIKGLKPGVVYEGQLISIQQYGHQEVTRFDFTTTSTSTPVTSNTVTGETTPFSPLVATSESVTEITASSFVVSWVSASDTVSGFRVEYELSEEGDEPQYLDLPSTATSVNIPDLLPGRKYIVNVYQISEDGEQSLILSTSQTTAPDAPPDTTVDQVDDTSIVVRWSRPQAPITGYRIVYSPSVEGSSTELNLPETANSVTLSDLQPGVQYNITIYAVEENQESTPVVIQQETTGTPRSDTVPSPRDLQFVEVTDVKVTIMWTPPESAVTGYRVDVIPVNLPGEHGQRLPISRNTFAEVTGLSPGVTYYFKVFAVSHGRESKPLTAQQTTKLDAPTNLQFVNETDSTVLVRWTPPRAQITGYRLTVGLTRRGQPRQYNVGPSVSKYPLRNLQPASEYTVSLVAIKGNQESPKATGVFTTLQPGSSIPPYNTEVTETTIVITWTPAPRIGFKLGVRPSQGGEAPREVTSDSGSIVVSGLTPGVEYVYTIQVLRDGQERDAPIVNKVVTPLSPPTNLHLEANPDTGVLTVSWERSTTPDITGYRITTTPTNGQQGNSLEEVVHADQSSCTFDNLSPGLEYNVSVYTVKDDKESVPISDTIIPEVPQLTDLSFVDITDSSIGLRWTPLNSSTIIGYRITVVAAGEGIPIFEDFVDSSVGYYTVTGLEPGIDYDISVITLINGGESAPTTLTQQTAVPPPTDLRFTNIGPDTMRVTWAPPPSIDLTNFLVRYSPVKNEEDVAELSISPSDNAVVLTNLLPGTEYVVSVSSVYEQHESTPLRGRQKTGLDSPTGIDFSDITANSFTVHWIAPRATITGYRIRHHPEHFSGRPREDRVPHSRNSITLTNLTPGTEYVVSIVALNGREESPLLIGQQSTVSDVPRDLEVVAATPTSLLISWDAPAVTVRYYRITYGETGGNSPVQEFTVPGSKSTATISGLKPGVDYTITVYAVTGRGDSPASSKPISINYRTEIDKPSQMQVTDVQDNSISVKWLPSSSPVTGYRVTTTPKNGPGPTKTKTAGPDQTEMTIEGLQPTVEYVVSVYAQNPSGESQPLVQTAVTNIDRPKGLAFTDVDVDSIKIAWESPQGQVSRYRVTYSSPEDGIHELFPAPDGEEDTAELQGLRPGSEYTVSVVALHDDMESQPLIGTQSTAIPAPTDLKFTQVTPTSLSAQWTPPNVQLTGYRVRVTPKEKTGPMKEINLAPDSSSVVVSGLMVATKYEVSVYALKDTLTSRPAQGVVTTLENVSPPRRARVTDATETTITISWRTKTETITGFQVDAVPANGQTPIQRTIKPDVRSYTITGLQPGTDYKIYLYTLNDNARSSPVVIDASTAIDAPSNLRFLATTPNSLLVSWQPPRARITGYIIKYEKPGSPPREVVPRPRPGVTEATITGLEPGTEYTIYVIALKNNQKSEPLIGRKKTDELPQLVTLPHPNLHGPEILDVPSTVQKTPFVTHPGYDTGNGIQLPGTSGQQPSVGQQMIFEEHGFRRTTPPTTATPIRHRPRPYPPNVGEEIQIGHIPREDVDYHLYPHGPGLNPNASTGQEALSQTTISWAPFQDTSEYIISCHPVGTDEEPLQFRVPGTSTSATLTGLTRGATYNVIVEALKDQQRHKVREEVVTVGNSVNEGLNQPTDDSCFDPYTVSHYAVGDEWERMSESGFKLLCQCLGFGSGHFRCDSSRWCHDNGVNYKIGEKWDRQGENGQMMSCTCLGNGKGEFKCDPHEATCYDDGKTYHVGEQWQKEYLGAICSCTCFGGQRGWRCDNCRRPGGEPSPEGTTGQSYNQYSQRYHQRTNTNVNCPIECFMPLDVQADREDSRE

drop of the CLP/Fn intensity ratio from low to high Fn fibre strain: 52%
Substance: synthetic collagen peptide (CLP) derived from the Fn-binding region of the α1 chain of type I collagen (residues Q778-G799), with a terminal cysteine
